Results: paper PMC2112520

Molecular target: 125I-PDGF plasma-binding protein of human plasma (about 280,000 mol wt) (human (endogenous in plasma))

Substance: 125I-labelled human platelet-derived growth factor II (from UniProt P04085 87-211; P01127 82-190) (ligand)
- percent of added 125I-PDGF bound: 10 to 20%
